This experiment concerns the target T1, soluble human GPC3 (human, UniProt P51654 25-563, limits assumed).
T1 construct: soluble human GPC3 as analyte; also called glypican 3
Put plainly: SPR (Biacore), soluble human GPC3.

The values that follow come from patent US20210388110A1 (published 2021).

Positions count from the first letter of the chain named.

T1 sequence (P51654 other isoform, or with tags, fused parts or gaps limits assumed, form in doubt): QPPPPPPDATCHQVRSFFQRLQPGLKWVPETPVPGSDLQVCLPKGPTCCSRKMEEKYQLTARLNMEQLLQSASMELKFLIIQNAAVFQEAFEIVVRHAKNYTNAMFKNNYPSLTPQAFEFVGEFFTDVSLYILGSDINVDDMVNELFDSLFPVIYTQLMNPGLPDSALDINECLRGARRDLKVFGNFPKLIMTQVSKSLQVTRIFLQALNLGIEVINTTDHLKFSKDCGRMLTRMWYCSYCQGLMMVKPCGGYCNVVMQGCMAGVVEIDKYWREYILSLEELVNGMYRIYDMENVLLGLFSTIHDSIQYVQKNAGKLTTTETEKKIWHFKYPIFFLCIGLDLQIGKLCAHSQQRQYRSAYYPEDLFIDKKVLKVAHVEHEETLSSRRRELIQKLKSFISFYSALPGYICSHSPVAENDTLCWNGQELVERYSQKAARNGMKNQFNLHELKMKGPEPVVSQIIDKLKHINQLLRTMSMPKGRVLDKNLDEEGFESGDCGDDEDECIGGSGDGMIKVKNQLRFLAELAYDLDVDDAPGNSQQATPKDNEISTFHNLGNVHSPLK

B1: H0610-G1dh/none-Hi-Kn010G3/L0204-k0 (antibody, human IgG1, kappa)
heavy: not shown
chain: EPKSSDKTHTCPPCPAPELLGGPSVFLFPPKPKDTLMISRTPEVTCVVVDVSHEDPEVKFNWYVDGVEVHNAKTKPREEQYNSTYRVVSVLTVLHQDWLNGKEYKCKVSNKALPAPIEKTISKAKGQPREPQVCTLPPSRDELTKNQVSLWCLVKGFYPSDIAVEWESNGQPENNYKTTPPVLDSDGSFFLYSKLTVDKSRWQQGNVFSCSVMHEALHNRYTQKSLSLSP
light: DIVMTQSPLSLPVTPGEPASISCRSSQSPVHSNRNTYLHWYQQKPGQAPRLLIYKVSNRFRGVPDRFSGSGSGTDFTLKISRVEAEDVGVYYCGQGTQVPYTFGQGTKLEIKRTVAAPSVFIFPPSDEQLKSGTASVVCLLNNFYPREAKVQWKVDNALQSGNSQESVTEQDSKDSTYSLSSTLTLSKADYEKHKVYACEVTHQGLSSPVTKSFNRGEC
notes: single-arm (one Fab)
As for B1, binding was characterised by a dissociation constant (Kd) of 0.727 nM.

B2: H0610-G1dh/none-Hi-Kn010G3/L0242-k0 (antibody, human IgG1, kappa)
heavy: not shown
chain: B1 chain
light: B1 light with Q27E, L38I, R61S, G94Y
notes: single-arm (one Fab)
In turn, B2 registered a Kd of 1.19 nM.

B3: H0610-G1dh/none-Hi-Kn010G3/L0263-k0 (antibody, human IgG1, kappa)
heavy: not shown
chain: B1 chain
light: B1 light with L38I, R61S, G94A
notes: single-arm (one Fab)
Turning to B3, the Kd was found to be 0.564 nM.

B4: H0610-G1dh/none-Hi-Kn010G3/L0240-k0 (antibody, human IgG1, kappa)
heavy: not shown
chain: B1 chain
light: B1 light with Q27E, R61S, G94Y
notes: single-arm (one Fab)
As to B4, the Kd turned out to be 0.848 nM.

B5: H0610-G1dh/none-Hi-Kn010G3/L0259-k0 (antibody, human IgG1, kappa)
heavy: not shown
chain: B1 chain
light: B1 light with L38I, R61S, G94T
notes: single-arm (one Fab)
As for B5, the dissociation constant Kd was 0.334 nM.

B6: H0610-G1dh/none-Hi-Kn010G3/L0238-k0 (antibody, human IgG1, kappa)
heavy: not shown
chain: B1 chain
light: B1 light with Q27E, S28P, R61S, G94Y
notes: single-arm (one Fab)
In turn, B6 yielded a Kd of 0.637 nM.

B7: H0610-G1dh/none-Hi-Kn010G3/L0231-k0 (antibody, human IgG1, kappa)
heavy: not shown
chain: B1 chain
light: B1 light with L38I, R61S, G94Y, V99W
notes: single-arm (one Fab)
Consider B7, for which the Kd stood at 0.589 nM.

B8: H0610-G1dh/none-Hi-Kn010G3/L0237-k0 (antibody, human IgG1, kappa)
heavy: not shown
chain: B1 chain
light: B1 light with S28E, L38I, R61S, G94Y
notes: single-arm (one Fab)
For B8, the Kd was 1.31 nM.

B9: H0610-G1dh/none-Hi-Kn010G3/L0208-k0 (antibody, human IgG1, kappa)
heavy: not shown
chain: B1 chain
light: B1 light with R61W, G94Y
notes: single-arm (one Fab)
B9 registered a Kd of 0.53 nM.

B10: H0610-G1dh/none-Hi-Kn010G3/L0230-k0 (antibody, human IgG1, kappa)
heavy: not shown
chain: B1 chain
light: B1 light with L38I, R61S, G94Y, G96T
notes: single-arm (one Fab)
B10 displayed a Kd of 4 nM.

B11: H0610-G1dh/none-Hi-Kn010G3/L0266-k0 (antibody, human IgG1, kappa)
heavy: not shown
chain: B1 chain
light: B1 light with S28P, R61S, G94V
notes: single-arm (one Fab)
B11 showed a Kd of 0.213 nM.

B12: H0610-G1dh/none-Hi-Kn010G3/L0228-k0 (antibody, human IgG1, kappa)
heavy: not shown
chain: B1 chain
light: B1 light with L38I, R61S, G94V
notes: single-arm (one Fab)
The molecule B12 returned a dissociation constant Kd of 0.202 nM.

B13: H0610-G1dh/none-Hi-Kn010G3/L0217-k0 (antibody, human IgG1, kappa)
heavy: not shown
chain: B1 chain
light: B1 light with S25P, P29L
notes: single-arm (one Fab)
On to B13, for which the Kd stood at 1.79 nM.

B14: H0610-G1dh/none-Hi-Kn010G3/L0234-k0 (antibody, human IgG1, kappa)
heavy: not shown
chain: B1 chain
light: B1 light with S28E
notes: single-arm (one Fab)
With B14, binding was put at a Kd of 0.778 nM.

B15: H0610-G1dh/none-Hi-Kn010G3/L0261-k0 (antibody, human IgG1, kappa)
heavy: not shown
chain: B1 chain
light: B1 light with L38I, H39Q, R61S, G94T
notes: single-arm (one Fab)
B15: the Kd is 0.0107 nM.

B16: H0610-G1dh/none-Hi-Kn010G3/L0248-k0 (antibody, human IgG1, kappa)
heavy: not shown
chain: B1 chain
light: B1 light with S25P, L38I, H39Q, R61S, G94Y
notes: single-arm (one Fab)
Take B16: binding was put at a Kd of 0.0555 nM.

B17: H0610-G1dh/none-Hi-Kn010G3/L0233-k0 (antibody, human IgG1, kappa)
heavy: not shown
chain: B1 chain
light: B1 light with S28E, P29L, R61S
notes: single-arm (one Fab)
For the molecule B17, the dissociation constant Kd is 3.55 nM.

B18: H0610-G1dh/none-Hi-Kn010G3/L0226-k0 (antibody, human IgG1, kappa)
heavy: not shown
chain: B1 chain
light: B1 light with L38I, R61S, G94I
notes: single-arm (one Fab)
On to B18, for which the Kd came to 0.093 nM.

B19: H0610-G1dh/none-Hi-Kn010G3/L0223-k0 (antibody, human IgG1, kappa)
heavy: not shown
chain: B1 chain
light: B1 light with L38I, F60L, R61S, G94Y
notes: single-arm (one Fab)
Consider B19, for which the Kd was 0.475 nM.

B20: H0610-G1dh/none-Hi-Kn010G3/L0206-k0 (antibody, human IgG1, kappa)
heavy: not shown
chain: B1 chain
light: B1 light with R61S, G94Y
notes: single-arm (one Fab)
As for B20, binding was characterised by a dissociation constant (Kd) of 0.865 nM.

B21: H0610-G1dh/none-Hi-Kn010G3/L0215-k0 (antibody, human IgG1, kappa)
heavy: not shown
chain: B1 chain
light: B1 light with S28P, L38I, R61S
notes: single-arm (one Fab)
B21 registered a Kd of 1.64 nM.

B22: H0610-G1dh/none-Hi-Kn010G3/L0220-k0 (antibody, human IgG1, kappa)
heavy: not shown
chain: B1 chain
light: B1 light with S28P, P29L, G94Y
notes: single-arm (one Fab)
Consider B22, for which the affinity, expressed as Kd, was 1.36 nM.

B23: H0610-G1dh/none-Hi-Kn010G3/L0258-k0 (antibody, human IgG1, kappa)
heavy: not shown
chain: B1 chain
light: B1 light with S28P, R61S, G94T
notes: single-arm (one Fab)
B23 displayed a Kd of 0.000352 nM.

B24: H0610-G1dh/none-Hi-Kn010G3/L0222-k0 (antibody, human IgG1, kappa)
heavy: not shown
chain: B1 chain
light: B1 light with L38I, H39Q, R61S, G94Y
notes: single-arm (one Fab)
Molecule B24 yielded a Kd of 0.00014 nM.

B25: H0610-G1dh/none-Hi-Kn010G3/L0239-k0 (antibody, human IgG1, kappa)
heavy: not shown
chain: B1 chain
light: B1 light with Q27E
notes: single-arm (one Fab)
In turn, B25 yielded a Kd of 0.874 nM.

B26: H0610-G1dh/none-Hi-Kn010G3/L0205-k0 (antibody, human IgG1, kappa)
heavy: not shown
chain: B1 chain
light: B1 light with R61W
notes: single-arm (one Fab)
Regarding B26, the Kd was determined as 1.01 nM.

B27: H0610-G1dh/none-Hi-Kn010G3/L0209-k0 (antibody, human IgG1, kappa)
heavy: not shown
chain: B1 chain
light: B1 light with L38I, R61S, G94Y
notes: single-arm (one Fab)
Turning to B27, binding was put at a Kd of 1.12 nM.

B28: H0610-G1dh/none-Hi-Kn010G3/L0213-k0 (antibody, human IgG1, kappa)
heavy: not shown
chain: B1 chain
light: B1 light with L38I
notes: single-arm (one Fab)
The molecule B28 had a Kd of 1.25 nM.

B29: H0610-G1dh/none-Hi-Kn010G3/L0216-k0 (antibody, human IgG1, kappa)
heavy: not shown
chain: B1 chain
light: B1 light with S28P, P29L
notes: single-arm (one Fab)
Regarding B29, the Kd turned out to be 1.86 nM.

B30: H0610-G1dh/none-Hi-Kn010G3/L0264-k0 (antibody, human IgG1, kappa)
heavy: not shown
chain: B1 chain
light: B1 light with S25P, R61S, G94A
notes: single-arm (one Fab)
Take B30: the affinity, expressed as Kd, was 0.219 nM.

B31: H0610-G1dh/none-Hi-Kn010G3/L0243-k0 (antibody, human IgG1, kappa)
heavy: not shown
chain: B1 chain
light: B1 light with Q27E, S28P
notes: single-arm (one Fab)
In turn, B31 displayed a Kd of 0.649 nM.

B32: H0610-G1dh/none-Hi-Kn010G3/L0219-k0 (antibody, human IgG1, kappa)
heavy: not shown
chain: B1 chain
light: B1 light with P29L, L38I
notes: single-arm (one Fab)
Molecule B32 displayed a Kd of 2.28 nM.

B33: H0610-G1dh/none-Hi-Kn010G3/L0229-k0 (antibody, human IgG1, kappa)
heavy: not shown
chain: B1 chain
light: B1 light with L38I, R61S, G94Y, G96S
notes: single-arm (one Fab)
The molecule B33 showed a Kd of 1.2 nM.

B34: H0610-G1dh/none-Hi-Kn010G3/L0211-k0 (antibody, human IgG1, kappa)
heavy: not shown
chain: B1 chain
light: B1 light with S28P, R61S, G94Y
notes: single-arm (one Fab)
Take B34: the affinity, expressed as Kd, was 0.647 nM.

B35: H0610-G1dh/none-Hi-Kn010G3/L0218-k0 (antibody, human IgG1, kappa)
heavy: not shown
chain: B1 chain
light: B1 light with P29L, G94Y
notes: single-arm (one Fab)
As to B35, the Kd came to 1.99 nM.

B36: H0610-G1dh/none-Hi-Kn010G3/L0212-k0 (antibody, human IgG1, kappa)
heavy: not shown
chain: B1 chain
light: B1 light with S25P, R61S, G94Y
notes: single-arm (one Fab)
In turn, B36 registered a Kd of 0.994 nM.

B37: H0610-G1dh/none-Hi-Kn010G3/L0249-k0 (antibody, human IgG1, kappa)
heavy: not shown
chain: B1 chain
light: B1 light with S25P, L38I, H39Q, R61S, G94S
notes: single-arm (one Fab)
Take B37: the Kd turned out to be 0.00686 nM.

B38: H0610-G1dh/none-Hi-Kn010G3/L0224-k0 (antibody, human IgG1, kappa)
heavy: not shown
chain: B1 chain
light: B1 light with L38I, R61P, G94Y
notes: single-arm (one Fab)
In turn, B38 registered a Kd of 0.243 nM.

B39: H0610-G1dh/none-Hi-Kn010G3/L0246-k0 (antibody, human IgG1, kappa)
heavy: not shown
chain: B1 chain
light: B1 light with L38I, H39Q, R61S, G94S
notes: single-arm (one Fab)
The molecule B39 showed a Kd of 0.00121 nM.

B40: H0610-G1dh/none-Hi-Kn010G3/L0262-k0 (antibody, human IgG1, kappa)
heavy: not shown
chain: B1 chain
light: B1 light with S28P, R61S, G94A
notes: single-arm (one Fab)
In turn, B40 came in with a Kd of 0.211 nM.

B41: H0610-G1dh/none-Hi-Kn010G3/L0214-k0 (antibody, human IgG1, kappa)
heavy: not shown
chain: B1 chain
light: B1 light with S28P
notes: single-arm (one Fab)
On to B41, for which the Kd was found to be 0.657 nM.

B42: H0610-G1dh/none-Hi-Kn010G3/L0267-k0 (antibody, human IgG1, kappa)
heavy: not shown
chain: B1 chain
light: B1 light with S25P, R61S, G94V
notes: single-arm (one Fab)
With B42, the Kd came to 0.179 nM.

B43: H0610-G1dh/none-Hi-Kn010G3/L0227-k0 (antibody, human IgG1, kappa)
heavy: not shown
chain: B1 chain
light: B1 light with L38I, R61S, G94L
notes: single-arm (one Fab)
B43: the Kd worked out at 0.408 nM.

B44: H0610-G1dh/none-Hi-Kn010G3/L0265-k0 (antibody, human IgG1, kappa)
heavy: not shown
chain: B1 chain
light: B1 light with L38I, H39Q, R61S, G94A
notes: single-arm (one Fab)
The molecule B44 registered a Kd of 0.0087 nM.
